Measured values reported in FireProtDB (doi:10.1021/bi00164a007).

Details: Saccharomyces cerevisiae (strain ATCC 204508 / S288c), CD, reversible: yes; for denaturant m value / denaturant midpoint (higher = more stable) / unfolding free energy: 27 °C, GdnHCl
[1] = pH 4.6, glycine 40 mM, structure 1YCC
[2] = pH 4.6, Thermal, Sodium acetate 50 mM, structure 1YCC
[3] = pH 6, Thermal, Sodium phosphate 50 mM, structure 1YCC
[4] = pH 7.2, Potassium phosphate 50 mM, structure 1YCC
[5] = pH 6, Thermal, Sodium phosphate 50 mM
[6] = pH 7.2, Potassium phosphate 50 mM

Chain of Cytochrome c isoform 1 V26C, P00044 (P00044 whole entry V26C, canonical isoform): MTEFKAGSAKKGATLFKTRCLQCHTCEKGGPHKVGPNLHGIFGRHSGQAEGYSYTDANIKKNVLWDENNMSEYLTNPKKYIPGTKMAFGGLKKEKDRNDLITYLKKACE
Chain of Cytochrome c isoform 1 wild type, P00044 (P00044 whole entry, canonical isoform): as the sequence (P00044 whole entry V26C, canonical isoform) above, with C26V counted along it

Substance	denaturant m value [1]	denaturant midpoint (higher = more stable) [1]	unfolding free energy [1]	Tm [2]	unfolding enthalpy (van 't Hoff) [2]	Tm [3]	change of melting temperature, mutant - wild type (higher = more stable) [3]	unfolding enthalpy (van 't Hoff) [3]	denaturant m value [4]	denaturant midpoint (higher = more stable) [4]	unfolding free energy [4]	Tm [5]	unfolding enthalpy (van 't Hoff) [5]	denaturant m value [6]	denaturant midpoint (higher = more stable) [6]	unfolding free energy [6]
Cytochrome c isoform 1 V26C, P00044	2.7 kcal/mol/M	1.1 M	2.9 kcal/mol	53.4 °C	64.5 kcal/mol	58.5 °C	6.8 °C	63.8 kcal/mol	2.6 kcal/mol/M	1.2 M	3 kcal/mol	–	–	–	–	–
Cytochrome c isoform 1 wild type, P00044	–	–	–	–	–	–	–	–	–	–	–	51.7 °C	84.5 kcal/mol	4.6 kcal/mol/M	0.9 M	4.1 kcal/mol
